This assay addresses T1, mouse IL-2Rβ (mouse) (UniProt P16297).
T1 sequence (looked up): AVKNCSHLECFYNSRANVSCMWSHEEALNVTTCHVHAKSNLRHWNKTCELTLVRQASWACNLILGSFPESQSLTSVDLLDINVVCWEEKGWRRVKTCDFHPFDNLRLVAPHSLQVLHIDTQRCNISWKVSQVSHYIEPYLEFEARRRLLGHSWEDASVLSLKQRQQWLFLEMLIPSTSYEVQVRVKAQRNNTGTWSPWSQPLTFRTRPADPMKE
The assay is described as follows: P.E. binding ELISA on coated protein.

B1: FJ1427_P035MP03F01 (VHH)
VHH: QVQLVESGGGLVQVGGSLRVSCAASGRTSGDRNMGWFRQAPGKEREFVGIITWSSGSTVYADSVKGRFTISRDNAKNTVYLDMSSLKPEDTAVYYCAADYYPYSGSWNIMDYWGKGTLVTVSS
B1 displayed a P.E. binding ELISA OD of 0.049 OD450 nm.

B2: FJ1427_P035MP03B02 (VHH)
VHH: EVQLVESGGGLVQVGDSLRLSCAASGRTVGSANMGWFRQAPGKEREFVAVITWSTGSTVYADSVKGRFTISRDNAKNTVYLDMSSLKPDDTAVYYCAADVYPYSGNLNIMDYWGKGTLVTVSS
B2: the P.E. binding ELISA OD was 0.068 OD450 nm.

B3: FJ1427 P035MP03C02 (VHH)
VHH: QVQLVESGGGLVQVGDSLRLSCAASGRTVGSANMGWFRQAPGKEREFVAVITWSTGSTVYADSVKGRFTISRDNAKNTVYLDMSSLKPEDTAVYYCAADVYPYSGNLNIMDYWGKGTLVTVSS
Turning to B3, the P.E. binding ELISA OD was 0.048 OD450 nm.

B4: FJ1427 P035MP03E01 (VHH)
VHH: QVQLVESGGGLVQAGGSLRLSCAASGGTFSSYAMGWFRQAPGKEREFVAATTRGGGRTMYAVSTEGRFTCSRDNAKNTVYLLMNSLKPEDTAVYYCAAMTSYYSGTYYPDSSDFDIWGQGTQVTVSS
In turn, B4 gave a P.E. binding ELISA OD of 0.049 OD450 nm.

B5: FJ1427_P035MP03G01 (VHH)
VHH: EVQLVESGGGLVQAGGSLRLSCAASGGTFSSYAMGWFRQAPGKEREFVAATTRGGGRTMYAVSTEGRFTCSRDNAKNTVYLLMNRVKPEDTAVYYCAARTSYYSGTYYPASSDFDIWGQGTQVTVSS
In turn, B5 returned a P.E. binding ELISA OD of 0.049 OD450 nm.

B6: FJ1427_P035MP03A02 (VHH)
VHH: QVQLVESGGGLVQAGGSLRLSCAASGGTFSSYAMGWFRQAPGKEREFVAATTRGGGRTMYAVSTEGRFTCSRDNAENTVYLQMNSLKPEDTAIYYCAAMTSYYSGTYYPDSSDFDIWGQGTQVTVSS
B6 displayed a P.E. binding ELISA OD of 0.052 OD450 nm.

B7: FJ1427 P035MP03D02 (VHH)
VHH: QVQLQESGGGLVQTGGSLRLSCAVSGSRFISDVMGWYRQVPGKQRELVADMADGGSAKYADSVKGRFSILRDSVKNTVYLQMSSLKPEDTGIYYCKAGLWLAGRHSDYWGQGTQVTVSS
As for B7, the P.E. binding ELISA OD worked out at 0.048 OD450 nm.

B8: FJ1427_P035MP03F02 (VHH)
VHH: QVQLVESGGGLVQPGGSLRLSCAASGFTFSNYAMSWVRQAPGKGLEWVSSITGAGRGTYYADSVKGRFTISRDNDKNTLYLQMNSLKPEDTAVYYCAKYDSSTYYPPTPARGIADRGQGIQVTVSS
Regarding B8, the P.E. binding ELISA OD worked out at 0.049 OD450 nm.

B9: FJ1427_P035MP03E02 (VHH)
VHH: QVQLVESGGGLVQVGGSLSVSCAASGRSFDSITMAYFRQAPGNEREFIAGINFSGSRTAYGDSVKGRFTISRDNAKNTVFLQMNSLNPEDTAVYYCAASPRGFYGPGHALYDYWGQGTQVTVSS
The molecule B9 returned a P.E. binding ELISA OD of 0.05 OD450 nm.

B10: FJ1427_P035MP03G02 (VHH)
VHH: EVQLVESGGGLVQPGGSLRLSCAISGGTLDSYGIGWVRQAPGKQREGVSCMSRSDDRTFYADSVKGRFTISKDNAKSTVYLQMTNLKPDDTAVYYCAAVDAYGCSLVQPTTYDFWGLGTQVTVSS
B10 showed a P.E. binding ELISA OD of 0.049 OD450 nm.

B11: FJ1427_P035MP03H01 (VHH)
VHH: QVQLVESGGGSVQTGGSLRLSCVVSGSHFISDVMGWYRQVPGKQRELVADMADGGSAKYADSVKGRFTILRDSVKNTVTLQMSSLNPEDTGVYYCKAGLWITGRHSDYWGQGTQVTVTS
In the case of B11, the P.E. binding ELISA OD came to 0.051 OD450 nm.

B12: FJ1427 P035MP03A03 (VHH)
VHH: EVQLVESGGGSVQTGGSLRLSCVVSGSHFISDVMGWYRQVPGKQRELVADMADGGSVKYGDSVKGRFTILRDSVKNTVTLQMSSLNPEDTGVYYCKAGLWITGRHFDYWGQGTQVTVTS
On to B12, for which the P.E. binding ELISA OD turned out to be 0.05 OD450 nm.

These data come from patent US20240409645A1.
